For one molecule, Kd results are on record in article PMC13480463 (Science translational medicine, 2021).

This test addresses T1, Fzd3 (receptor of the AP binding assays) (UniProt Q61086 23-666).
T1 sequence (looked up): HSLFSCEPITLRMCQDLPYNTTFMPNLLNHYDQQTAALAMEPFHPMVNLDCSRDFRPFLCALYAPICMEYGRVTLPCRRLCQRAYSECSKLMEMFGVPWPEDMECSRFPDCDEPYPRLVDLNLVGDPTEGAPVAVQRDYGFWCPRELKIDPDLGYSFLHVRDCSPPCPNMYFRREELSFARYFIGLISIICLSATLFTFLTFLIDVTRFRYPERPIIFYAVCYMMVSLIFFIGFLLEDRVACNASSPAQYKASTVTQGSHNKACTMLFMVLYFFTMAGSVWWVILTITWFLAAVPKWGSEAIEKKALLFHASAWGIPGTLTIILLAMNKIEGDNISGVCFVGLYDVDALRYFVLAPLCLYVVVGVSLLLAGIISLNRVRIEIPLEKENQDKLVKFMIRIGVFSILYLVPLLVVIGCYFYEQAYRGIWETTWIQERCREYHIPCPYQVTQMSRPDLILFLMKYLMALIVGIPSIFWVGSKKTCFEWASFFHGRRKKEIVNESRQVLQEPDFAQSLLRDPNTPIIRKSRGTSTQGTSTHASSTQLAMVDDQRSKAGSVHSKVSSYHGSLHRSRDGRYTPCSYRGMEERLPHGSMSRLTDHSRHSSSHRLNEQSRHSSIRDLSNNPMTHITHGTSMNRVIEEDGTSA
Briefly: alkaline phosphatase.

B1: AP-tagged TSK protein (TSK-AP) (ligand, mouse, UniProt Q8CBR6 18-354, looked up)
chain: TRPCFPGCQCEEETFGLFDSFSLIRVDCSSLGPHIVPVPIPLDTAHLDLSSNRLETVNESVLAGPGYTTLAGLDLSYNLLTSIMPSAFSRLRYLESLDLSHNGLAALPAEIFTSSPLSDINLSHNRLREVSISAFTTHSQGRALHVDLSHNLIHRLLPHPARASLPAPTIQSLNLSWNRFRAVPDLRDLPLRYLSLDGNPLATINPDAFMGLAGLTHLSLASLQGILHLPPHGFRELPGLQVLDLSGNPKLKWAGAEVFSGLGLLQELDLSGSSLVPLPEMLLHHLPALQSVSVGQDVQCRRLVREGAYHRQPGSSPKVVLHCGDTQESAARGPDIL
Turning to B1, the Kd (commonly a measure of binding affinity in units of concentration) was found to be 0.27 nM. In other words, the sub-nanomolar range.
